The record followed here is US6027911.

Assay [1] deals with Met-Asp-human growth hormone (human) (UniProt P01241).
Assay [2] has as its target Met-Arg-Human Proinsulin Analog (B28 Lys, B29 Pro) (human) (UniProt P01308).

Substance “bovine dipeptidylaminopeptidase 1 (enzyme)” registered a human growth hormone (hGH) conversion yield (reverse phase chromatography) in assay [1] of 37%. The same substance came in with an extent of conversion of MR-KPB-hPI to KPB-hPI (reverse phase HPLC) in assay [2] of 98%.
